Source: publication doi:10.1101/2023.08.14.553235

Biological target: GFP1–10 tagged with MCP, with nuclear localization sequences
Assay: P3 editing (protein-protein proximity sensor; genome editing read-out); HEK293T cells transfected with one of 12 designs of crRNA-MS2/BoxB-petracrRNA (upper 4-bp region of the repeat:anti-repeat duplex varied), PE4max and split-GFP or standard GFP (background); editing normalized to the eCTT control

normalized editing efficiency (GAUA:UAUC guide RNA design): 3.8%
Substance: GFP11 tagged with LambdaN, with nuclear localization sequences (peptide)
